Target: T1, BODIPY-labeled LDL (low density lipoprotein) (UniProt P04114 28-4563, BODIPY fluorescent label, site not stated)
T1 construct: A lipoprotein particle (protein and lipid), not a pure protein; also called BODIPY-LDL; LDL-BODIPY
Assay: FACS; increasing amounts of BODIPY-LDL for 1 h at 37 C on HEK293 cells transfected with LDLR mRNA

Kd: ~0.06 µg/mL
B1: wild type (WT) human low density lipoprotein receptor (LDLR) (receptor)
chain: not shown
notes: also called LDL receptor; wild-type LDLR

From patent publication US20160136236A1 (MODERNA THERAPEUTICS, published 2016)
